Experiment [1] deals with Zika virus (ZIKV) soluble E ectodomain (sE) (Zika virus). Briefly: SEC-MALS; pH 8.0; isolated proteins sampled individually; Superdex 200. For orientation: Size exclusion chromatography separates by hydrodynamic size, large species first.
Experiment [2] shares this target. Briefly: SEC-MALS.

On to “Zika virus (ZIKV) soluble E ectodomain (sE) (domain or fragment)”, for which the stoichiometry N in experiment [1] and in experiment [2] was 2 throughout.
